Test results published in publication PMC12592476.
pKd: −log10 of the molar value.

Key:
[1] = target: bovine brain Arp2/3 complex (bovine) (UniProt P61157); experiment: ITC; Coro7 CA in the syringe, ADP-bound Arp2/3 complex in the 1.44 mL cell; 25 °C; 20 mM HEPES pH 7.5, 100 mM KCl, 1 mM MgCl2, 1 mM EGTA, 1 mM DTT, 0.2 mM ADP
[2] = target: bovine brain Arp2/3 complex (bovine) (UniProt P61157); experiment: ITC; Coro7 CA in the syringe, ATP-bound Arp2/3 complex in the 1.44 mL cell; 25 °C; 20 mM HEPES pH 7.5, 100 mM KCl, 1 mM MgCl2, 1 mM EGTA, 1 mM DTT, 0.2 mM ATP

Chain of human Coro7 CA (C-terminal Central-Acidic region of coronin 7) (P57737 888-925): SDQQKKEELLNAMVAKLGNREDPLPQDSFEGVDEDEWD

human Coro7 CA (C-terminal Central-Acidic region of coronin 7) (from UniProt P57737-1 888-925) (domain or fragment)
pKd [1]: 6.00 | stoichiometry N [1]: 1 | pKd [2]: 6.00 | stoichiometry N [2]: 1
